Laboratory results taken from patent publication US20240228647A1, “OFATUMUMAB FOR TREATING MULTIPLE SCLEROSIS IN ASIAN PATIENTS” (Novartis AG, priority 2021, published 2024).
Read-outs that look alike come from different tables or passages of the source. Marks after values point to notes of the source that are not given here.

What was measured:
patients with RMS [1] = assay: Gd-enhancing T1 lesions per scan, Phase III Studies I and II; type: in vivo, human; details: for Gd-enhancing T1 lesions rate reduction (%): vs teriflunomide
Protocol: (§1) Ofatumumab was investigated in 1882 patients with RMS from two identical Phase III randomized, double-blind, double-dummy, active-comparator controlled, parallel-group, multicenter studies of identical design (Study I and Study II). Patients were randomized to receive either ofatumumab, OMB (20 mg s.c injections every 4 weeks, after an initial loading regimen of 3 injections on Day 1, 7, and 14), or teriflunomide, TER (14 mg p.o. once a day) as active comparator. For brevity, the teriflunomide data are not shown hereinafter.
(§2) The maximum treatment duration for an individual patient was 30 study months (approximately 2.5 years). The two studies included a total of 71 patients of Asian race (36 patients in ofatumumab and 35 patients in teriflunomide treatment groups). This Example also includes the Asian patients data from oncology studies (Study A and Study B), as supportive data, where required.
The number of Gd-enhancing T1 lesions per scan was a key secondary efficacy endpoint in the pivotal Phase III studies.

[2] = human, in vivo
serum IgG and IgM levels = assay: Serum IgG and IgM levels under long-term ofatumumab treatment; type: in vivo, human
Protocol: Serum immunoglobulin (Ig) levels can be determined routinely in clinical practice. In the present application serum Ig levels can preferably be determined by immunoturbidimetry. Preferably a Roche cobas® Analyzer was used, especially module c of the cobas® analyser. In a preferred embodiment Ig levels can be determined by using a cobas® c 311 analyzer. It is further preferred that IgG measurements are carried out as described in the cobas® leaflet “IGG-2 Tina-quant IgG Gen.2”, preferably version 11.0 dated 2016-02 and IgM measurements as described in the leaflet “IGM-2 Tina-quant IgM Gen.2”, preferably version 13.0 dated 2018-11.
Serum samples were preferably kept at 2-8° C. before measurement.
Patients were subjected to a long term treatment. Patients received ofatumumab 20 mg sc injections every 4 weeks (after an initial loading regimen of 20 mg sc doses on weeks 0, 1 and 2).

patients with RMS [3] = type: in vivo, human
Protocol: as §1, §2
For the safety analyses of this report, non-serious treatment emergent adverse events (TEAEs) up to and including safety cut-off (i.e. 100 days after last study drug administration) and serious TEAEs regardless of the safety cutoff were considered (if reported prior to the data cut-off of Studies I and II). Common terminology criteria for adverse events (CTCAE) grading was used to record the severity of each AE. The latest version of CTCAE available at the time of TEAE reporting was used. […] The three most frequently reported AEs by SOC were ‘General disorders and administration site conditions’ ‘Infections and infestations’ and ‘Injury, poisoning and procedural complications’ in the Asian and ROW subgroups by race (Table 7). […] In the Asian subgroup, 1 patient experienced SAEs of urinary tract infections, urosepsis and testicular infarction in the ofatumumab group and 1 patient reported an SAE of nephrolithiasis in the teriflunomide group (Table 8). Due to the small number of Asian patients by race and region, results should be interpreted with caution.
AEs of special interest were summarized by risk name, PT and treatment. Furthermore, the incidence of any AE that fulfilled the search terms as defined in eCRS were summarized by risk name, level, and maximum CTCAE grade. In this section, AESIs are first described for subgroups by race and then by region. […] The definitions of AEs of special interest correspond to the identified or potential risks for ofatumumab and its class of drug as well as those for the comparator (teriflunomide). AESIs, based on the safety profiles of ofatumumab, comparator, and other anti-CD20 mABs are: • Injection-related reactions including injection-systemic reaction and injection-site • reactions • Infections, including opportunistic infections, HBV infection reactivation and PML • Malignant and premalignant disorders • Hepatic Safety • Neutropenia

[4] = Pharmacokinetics of ofatumumab in patients (ethnic comparison, half-life); details: 2000 mg intravenous infusion, refractory CLL

Substance: ofatumumab [OMB]
- Gd-enhancing lesions/number of scans (lesion rate) (patients with RMS [1]; Asian): (0.019)
- Number of Gd-enhancing lesions (patients with RMS [1]; Asian): 1/54
- Gd-enhancing lesions/number of scans (lesion rate) (patients with RMS [1]; Rest of World): (0.031)
- Number of Gd-enhancing lesions (patients with RMS [1]; Rest of World): 51/1666
- Reduction of mean number of Gd-enhancing T1 lesions per scan compared with teriflunomide (patients with RMS [1]; overall population): 95.8%
- Gd-enhancing T1 lesions rate reduction (%) (patients with RMS [1]; Asian): 93.8/0.022* %
- Gd-enhancing T1 lesions rate reduction (%) (patients with RMS [1]; Rest of World): 95.9/<0.001* %
- Ofatumumab concentrations in Asian subjects and White subjects [2]: Comparable ofatumumab concentrations
- Race as a covariate in the population PK analysis [2]: not found to be a significant covariate
- Half-life at steady state ([2]; sc, 20 mg): approximately 16 days
- IgM levels with longer duration (serum IgG and IgM levels; 20 mg sc every 4 weeks, FIGS. 3 and 4): A reduction in IgM levels
- IgG levels over the long-term follow-up (serum IgG and IgM levels; 20 mg sc every 4 weeks, follow-up of >4 years, FIG. 1): stable
- IgM levels versus lower limit of normal (serum IgG and IgM levels; 20 mg sc every 4 weeks, longer duration, FIGS. 3 and 4): levels remained above the lower limit of normal
- Increase of IgG levels (serum IgG and IgM levels; after two years (96 weeks), FIG. 6): about 3%
- TEAE: Gastrointestinal disorders, % (patients with RMS [3]; Asian (race)): (11.1) %
- TEAE: Nervous system disorders, % (patients with RMS [3]; Asian (race)): (11.1) %
- TEAE: Reproductive system and breast disorders, % (patients with RMS [3]; Asian (race)): (11.1) %
- AESI: Injection-site reaction (any reaction), % (patients with RMS [3]; Rest of World (race)): (11.1) %
- AE by PT: alopecia, % (patients with RMS [3]; in vivo): 5.7%
- AE by PT: alopecia, patients (patients with RMS [3]; in vivo): 52
- AE by PT: nasopharyngitis, % (patients with RMS [3]; in vivo): 18.5%
- AE by PT: nasopharyngitis, patients (patients with RMS [3]; in vivo): 168
- AE by PT: pyrexia, % (patients with RMS [3]; in vivo): 33.3%
- AE by PT: pyrexia, patients (patients with RMS [3]; in vivo): 12
- AE by PT: upper respiratory tract infection, % (patients with RMS [3]; in vivo): 11.1%
- AE by PT: upper respiratory tract infection, patients (patients with RMS [3]; in vivo): 4
- AESI Neutropenia, % (patients with RMS [3]; in vivo): (1.0) %
- AESI: Drug abuse and dependence, % (patients with RMS [3]; in vivo): 0.1%
- AESI: Drug abuse and dependence, number of events [E] (patients with RMS [3]; in vivo): 1
- AESI: Herpes viral infections, % (patients with RMS [3]; in vivo): 5.1%
- AESI: Herpes viral infections, number of events [E] (patients with RMS [3]; in vivo): 61
- AESI: Injection-site reaction (any reaction), % (patients with RMS [3]; in vivo): (2.8) %
- AESI: Lower Respiratory tract Infections, % (patients with RMS [3]; in vivo): 3.3%
- AESI: Lower Respiratory tract Infections, number of events [E] (patients with RMS [3]; in vivo): 31
- AESI: Neoplasms, % (patients with RMS [3]; in vivo): 2.6%
- AESI: Neoplasms, number of events [E] (patients with RMS [3]; in vivo): 28
- AESI: Neutropenia, % (patients with RMS [3]; in vivo): 1.0%
- AESI: Neutropenia, number of events [E] (patients with RMS [3]; in vivo): 13
- AESI: Opportunistic infections, % (patients with RMS [3]; in vivo): 0.1%
- AESI: Opportunistic infections, number of events [E] (patients with RMS [3]; in vivo): 1
- AESI: Pregnancy, % (patients with RMS [3]; in vivo): 0.1%
- AESI: Pregnancy, number of events [E] (patients with RMS [3]; in vivo): 1
- AESI: Premalignant disorders, % (patients with RMS [3]; in vivo): 0.8%
- AESI: Premalignant disorders, number of events [E] (patients with RMS [3]; in vivo): 9
- AESI: Risk of malignancy, % (patients with RMS [3]; in vivo): 0.5%
- AESI: Risk of malignancy, number of events [E] (patients with RMS [3]; in vivo): 5
- AESI: Suicidal Ideation and Behavior, % (patients with RMS [3]; in vivo): 0.9%
- AESI: Suicidal Ideation and Behavior, number of events [E] (patients with RMS [3]; in vivo): 9
- AESI: Urinary tract infection, number of events [E] (patients with RMS [3]; in vivo): 4
- AESI: Varicella-Zoster virus infections, % (patients with RMS [3]; in vivo): 2.0%
- AESI: Varicella-Zoster virus infections, number of events [E] (patients with RMS [3]; in vivo): 19
- Drug abuse and dependence, % (patients with RMS [3]; in vivo): (0.1) %
- Pregnancy, % (patients with RMS [3]; in vivo): (0.1) %
- SAE by PT: Appendicitis, % (patients with RMS [3]; in vivo): 0.9%
- SAE by PT: Appendicitis, patients (patients with RMS [3]; in vivo): 8
- Serious TEAE: Blood and lymphatic system disorders, % (patients with RMS [3]; in vivo): (0.2) %
- Serious TEAE: Cardiac disorders, % (patients with RMS [3]; in vivo): (0.3) %
- Serious TEAE: Ear and labyrinth disorders, % (patients with RMS [3]; in vivo): (0.3) %
- Serious TEAE: Gastrointestinal disorders, % (patients with RMS [3]; in vivo): (0.9) %
- Serious TEAE: General disorders and administration site conditions, % (patients with RMS [3]; in vivo): (0.3) %
- Serious TEAE: Hepatobiliary disorders, % (patients with RMS [3]; in vivo): (0.5) %
- Serious TEAE: Immune system disorders, % (patients with RMS [3]; in vivo): (0.1) %
- Serious TEAE: Injury, poisoning and procedural complications, % (patients with RMS [3]; in vivo): (1.4%
- Serious TEAE: Investigations, % (patients with RMS [3]; in vivo): (0.2) %
- Serious TEAE: Musculoskeletal and connective tissue disorders, % (patients with RMS [3]; in vivo): (0.9) %
- Serious TEAE: Neoplasms benign, malignant and unspecified (incl cysts and polyps), % (patients with RMS [3]; in vivo): (1.0) %
- Serious TEAE: Nervous system disorders, % (patients with RMS [3]; in vivo): (0.8) %
- Serious TEAE: Psychiatric disorders, % (patients with RMS [3]; in vivo): (1.1) %
- Serious TEAE: Respiratory, thoracic and mediastinal disorders, % (patients with RMS [3]; in vivo): (0.2) %
- Serious TEAE: Skin and subcutaneous tissue disorders, % (patients with RMS [3]; in vivo): (0.1) %
- TEAE: Cardiac disorders, % (patients with RMS [3]; in vivo): (2.9) %
- TEAE: Congenital, familial and genetic disorders, % (patients with RMS [3]; in vivo): (0.1) %
- TEAE: Endocrine disorders, % (patients with RMS [3]; in vivo): (1.0) %
- TEAE: Gastrointestinal disorders, % (patients with RMS [3]; in vivo): (24.2) %
- TEAE: Hepatobiliary disorders, % (patients with RMS [3]; in vivo): (1.9) %
- TEAE: Immune system disorders, % (patients with RMS [3]; in vivo): (1.8) %
- TEAE: Neoplasms benign, malignant and unspecified (incl cysts and polyps), % (patients with RMS [3]; in vivo): (2.6) %
- TEAE: Nervous system disorders, % (patients with RMS [3]; in vivo): (29.5) %
- TEAE: Reproductive system and breast disorders, % (patients with RMS [3]; in vivo): (5.9) %
- TEAE: Social circumstances, % (patients with RMS [3]; in vivo): (0.3) %
- TEAE: Vascular disorders, % (patients with RMS [3]; in vivo): (6.0) %
- PK parameters (Cmax, AUC, T1/2) in Asian vs. White patients [4]: Comparable PK parameters
